Target: recombinant human IL-23R/Fc chimera (human) (UniProt Q5VWK5)
Test: ELISA of conditioned media on coated IL-23R-Fc, anti-p40 detection

Sequence of recombinant human IL-23R/Fc chimera (human) (Q5VWK5 24-353 limits assumed, change not shown): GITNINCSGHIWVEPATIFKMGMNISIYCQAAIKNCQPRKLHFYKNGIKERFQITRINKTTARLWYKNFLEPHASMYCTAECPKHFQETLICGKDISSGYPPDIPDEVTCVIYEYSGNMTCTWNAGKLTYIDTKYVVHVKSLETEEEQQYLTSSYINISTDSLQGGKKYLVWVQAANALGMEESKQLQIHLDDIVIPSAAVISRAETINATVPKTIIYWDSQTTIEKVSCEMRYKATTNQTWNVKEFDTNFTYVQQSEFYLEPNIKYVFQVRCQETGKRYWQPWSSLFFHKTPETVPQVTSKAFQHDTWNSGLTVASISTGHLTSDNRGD

reduction of binding compared to WT: 50%
Substance: W2 IL-23 cytokine (p19 W2 to G mutant + p40) (from UniProt Q9NPF7 20-189; P29460 23-328) (ligand)

— patent USRE49026
